Experimental data reported in patent US20230211003A1, “CONJUGATE COMPOUNDS FOR PREVENTING AND/OR TREATING HBV AND/OR HDV INFECTIONS, LIVER DISEASES ANDFOR TARGETING NTCP” (priority 2019, published 2023).
Read-outs that look alike come from different tables or passages of the source. Square brackets hold non-standard residues; d marks the D form. Ends that are not written are not given here. Peptide text beside a SMILES is read from it. * marks the point of attachment. Ursodeoxycholyl = C[C@H](CCC(=O)*)[C@H]1CC[C@H]2[C@@H]3[C@@H](O)C[C@@H]4C[C@H](O)CC[C@]4(C)[C@H]3CC[C@]12C; Myristoyl = CCCCCCCCCCCCCC(=O)*

Legend:
HDV = experiment: microbe, parasite or virus in culture; format: cell-based, hepatitis D virus (HDV)
From the text: FIG. 3 HBV/HDV infection assay.
Tested were conjugate compounds comprising a truncated variant of Myrcludex B (amino acids 2-21) conjugated with bile acids cholic acid (CA) and ursodeoxy cholic acid (UDCA). They were compared with a control peptide not containing a bile acid moiety, namely HBVpreS/(-11)-21^myr (Genotype B) and the two bile acids CA and UDCA alone.
FIG. 4 HBV/HDV infection assay.
Tested were conjugate compounds comprising a truncated variant of Myrcludex B (amino acids 2-21) conjugated with cholic acid (CA) and a cyclic peptide (also comprising amino acids 2-21) conjugated with ursodeoxy cholic acid (UDCA). They were compared with a control peptide not containing a bile acid moiety, namely HBVpreS/2-21^myr (Genotype B).
FIG. 5 HBV/HDV infection assay of compounds conjugated with bile acid monomers and dimers.
Tested were three compounds: two conjugated with ursodeoxy cholic acid (UDCA) and one with a dimer of ursodeoxy cholic acid (UDCA)2, wherein two comprise amino acids 2-21 of Myrcludex B in a linear form and one as cyclic peptide.
FIG. 7 Infection inhibition of bile acid conjugates with linear peptide sequences Reduction of HDV infection by various bile acid conjugates, control peptides, ursodeoxycholic acid and cholic acid in Huh7-hNTCP cells. The cells were pretreated with the substances for 30 minutes and then co-incubated with the substances and HDV overnight. An in-cell ELISA was carried out five days after infection (n=3).
Reduction of HDV infection by various bile acid conjugates and control peptides in Huh7-hNTCP cells. The cells were pretreated with the substances for 30 minutes and then co-incubated with the substances and HDV overnight. An in-cell ELISA was carried out five days after infection (n=3).
Reduction of HDV infection by a bile acid dimer peptide conjugate bile acid conjugates as compared to the monomeric bile acid conjugates and the control peptides in Huh7-hNTCP cells. The cells were pretreated with the substances for 30 minutes and then coincubated with the substances and HDV overnight. An in-cell ELISA was carried out five days after infection (n=3).
Example 3 HDAg In-Cell ELISA (Huh7-hNTCP
1st Antibody Mouse or rabbit anti HDAg (FD3A7) 1:3000
2nd Antibody: Goat-anti-mouse or goat-anti-rabbit peroxidase conjugated 1:5000
Grow and infect cells in white 96-well plates.
1) Fix cells with 50 μl 4% PFA at RT for 30 min
5) Incubate with 100 μl primary antibody (1:3000) diluted in blocking buffer at RT with shaking for 1 h
9) Incubate with 100 μl 2nd Antibody 1:5000 in blocking buffer at RT with shaking for 1 h.
11) Add 50 μl luminescence substrate (mix according to manufacturer's protocol) and measure at plate reader directly after pipetting.
(Enhanced luciferase protocol, 0.1 s measurement)

[1] = target: human sodium taurocholate co-transporting polypeptide (NTCP/SLC10A1) (human) (UniProt Q14973); experiment: cell-based or functional assay
[2] = target: T1, human sodium taurocholate co-transporting polypeptide (NTCP/SLC10A1) (human, UniProt Q14973 1-349); experiment: cell-based or functional assay
T1 sequence: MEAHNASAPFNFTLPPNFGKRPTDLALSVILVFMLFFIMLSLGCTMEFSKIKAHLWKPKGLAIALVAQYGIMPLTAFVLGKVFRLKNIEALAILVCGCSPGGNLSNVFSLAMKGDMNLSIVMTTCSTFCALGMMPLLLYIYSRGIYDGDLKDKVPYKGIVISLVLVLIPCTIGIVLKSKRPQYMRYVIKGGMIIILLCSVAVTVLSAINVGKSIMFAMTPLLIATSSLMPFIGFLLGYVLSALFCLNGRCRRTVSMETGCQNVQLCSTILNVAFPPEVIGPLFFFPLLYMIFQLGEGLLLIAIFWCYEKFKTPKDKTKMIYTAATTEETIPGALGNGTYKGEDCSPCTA

[3] = experiments of FIGS. 7 and 9, Huh7-hNTCP cells pretreated 30 minutes, co-incubated with HDV overnight, in-cell ELISA five days after infection (n=3), read-out: IC 50
[4] = HDV infection, Huh7-hNTCP cells, in-cell ELISA, FIGS. 3, 4 and 5 (genotype B sequence), read-out: IC50

Molecule: C[C@H](CCC(=O)O)[C@H]1CC[C@H]2[C@@H]3[C@H](O)C[C@@H]4C[C@H](O)CC[C@]4(C)[C@H]3C[C@H](O)[C@]12C [CA, cholic acid]
- IC50 (HDV; Hepatitis delta virus): 115000 nM

Molecule: CCCCCCCCCCCCCC(=O)NCC(=O)N[C@H](C(=O)N[C@@H](CC(N)=O)C(=O)N[C@@H](CC(C)C)C(=O)N[C@@H](CO)C(=O)N[C@H](C(=O)N1CCC[C@H]1C(=O)N[C@@H](CC(N)=O)C(=O)N1CCC[C@H]1C(=O)N[C@@H](CC(C)C)C(=O)NCC(=O)N[C@@H](Cc1ccccc1)C(=O)N[C@@H](Cc1ccccc1)C(=O)N1CCC[C@H]1C(=O)N[C@@H](CC(=O)O)C(=O)N[C@@H](Cc1c[nH]cn1)C(=O)N[C@@H](CCC(N)=O)C(=O)N[C@@H](CC(C)C)C(=O)N[C@@H](CC(=O)O)C(=O)N1CCC[C@H]1C(=O)N[C@H](Cc1ccc(O)cc1)C(=O)N[C@@H](CCCCNC(=O)CC[C@@H](C)[C@H]1CC[C@H]2[C@@H]3[C@@H](O)C[C@@H]4C[C@H](O)CC[C@]4(C)[C@H]3CC[C@]12C)C(N)=O)C(C)C)[C@@H](C)O [HBVpreS/2-21myr-UDCA] (Myristoyl-GTNLSVPNPLGFFPDHQLDP[dY]K(Ursodeoxycholyl)-NH2)
- IC50 (HDV; [3]): 9.2 nM

Molecule: CCCCCCCCCCCCCC(=O)NCC(=O)N[C@H](C(=O)N[C@@H](CC(N)=O)C(=O)N[C@@H](CC(C)C)C(=O)N[C@@H](CO)C(=O)N[C@H](C(=O)N1CCC[C@H]1C(=O)N[C@@H](CC(N)=O)C(=O)N1CCC[C@H]1C(=O)N[C@@H](CC(C)C)C(=O)NCC(=O)N[C@@H](Cc1ccccc1)C(=O)N[C@@H](Cc1ccccc1)C(=O)N1CCC[C@H]1C(=O)N[C@@H](CC(=O)O)C(=O)N[C@@H](Cc1c[nH]cn1)C(=O)N[C@@H](CCC(N)=O)C(=O)N[C@@H](CC(C)C)C(=O)N[C@@H](CC(=O)O)C(=O)N1CCC[C@H]1C(N)=O)C(C)C)[C@@H](C)O [HBVpreS/2-21myr] (Myristoyl-GTNLSVPNPLGFFPDHQLDP-NH2; C-terminus assumed)
- IC50 (HDV; [4]): 62.8 nM

Molecule: C[C@H](CCC(=O)O)[C@H]1CC[C@H]2[C@@H]3[C@@H](O)C[C@@H]4C[C@H](O)CC[C@]4(C)[C@H]3CC[C@]12C [UDCA, ursodeoxycholic acid]
- IC50 (HDV; [4]): 79000 nM
- IC50 (HDV; [3]): 79000 nM

Molecule: HBVpreS/2-21myr (consensus) (peptide)
- IC 50, inhibition of HDV infection of Huh7-hNTCP cells (in-cell ELISA, FIGS. 7 and 9) [1]: 70.3 nM

Molecule: HBVpreS/2-21myr-(UDCA)2 (genotype B) (peptide)
- IC50, inhibition of HDV infection of Huh7-hNTCP cells (HDAg in-cell ELISA) [1]: 3.55 nM
- IC 50, inhibition of HDV infection of Huh7-hNTCP cells (in-cell ELISA, FIGS. 7 and 9) [1]: 12.7 nM

Molecule: HBVpreS/2-21myr-CA (genotype B) (peptide)
- IC50, inhibition of HDV infection of Huh7-hNTCP cells (HDAg in-cell ELISA) [1]: 7.27 nM
- IC 50, inhibition of HDV infection of Huh7-hNTCP cells (in-cell ELISA, FIGS. 7 and 9) [1]: 12.5 nM

Molecule: HBVpreS/2-21myr-LCA (genotype B) (peptide)
- IC 50, inhibition of HDV infection of Huh7-hNTCP cells (in-cell ELISA, FIGS. 7 and 9) [1]: 7.5 nM

Molecule: HBVpreS/2-21myr-UDCA (genotype B) (peptide)
- IC50, inhibition of HDV infection of Huh7-hNTCP cells (HDAg in-cell ELISA) [1]: 8.45 nM
- IC 50, inhibition of HDV infection of Huh7-hNTCP cells (in-cell ELISA, FIGS. 7 and 9) [1]: 9.2 nM

Molecule: MyrB-UDCA (peptide)
- IC 50, inhibition of HDV infection of Huh7-hNTCP cells (in-cell ELISA, FIGS. 7 and 9) [1]: 1.5 nM

Molecule: Myristoyl-GTNLSVPNPLGFFPDHQLDP [HBVpreS/2-21myr (Genotype B)]
- IC50, inhibition of HDV infection of Huh7-hNTCP cells (HDAg in-cell ELISA) [2]: 62.8 nM
